These results are taken from patent US20200017592A1 (Regeneron, published 2020).

The target in experiment [1] is T1, recombinant human IL-36R extracellular domain expressed with a C-terminal myc-myc-hexahistidine tag (human, UniProt Q9HB29 20-337).
T1 construct: also called hIL-36R-MMH; hIL-36R.mmH
Description: SPR (Biacore 4000), mAb captured on anti-human Fc, 37°C. How it is done:
(§1) Equilibrium dissociation constants (KD values) for IL-36R binding to purified anti-IL-36R antibodies were determined using a real-time surface plasmon resonance biosensor using a Biacore 4000 instrument. The Biacore sensor surface was first derivatized by amine coupling with a monoclonal mouse anti-human Fc antibody (GE, # BR-1008-39) to capture anti-IL-36R monoclonal antibodies. All binding studies were performed in 0.01 M Hepes pH 7.4, 0.15 M NaCl, 3 mM EDTA, and 0.05% v/v Surfactant Tween-20 (HBS-ET running buffer) at 25° C. and 37° C. Different concentrations of IL-36R reagents, human IL-36R extracellular domain expressed with a C-terminal myc-myc-hexahistidine tag (hIL-36R-MMH), Macaca fascicularis IL-36R extracellular domain expressed with a C-terminal myc-myc-hexahistidine tag (mfIL-36R-MMH: mROR1 signal sequence (M1-A29). Macaca fascicularis IL36R_ecto domain (D20-A336).mycmycHis6), human IL-36R extracellular domain expressed with a C-terminal mouse IgG2a Fc tag (hIL-36R-mFc: mROR1 signal sequence (M1-A29)-human IL36R (D20-Y337)-mouse IgG2aFc (E98-K330)) or an in-line fusion protein of human IL-36R extracellular domain and IL1RAcP extracellular domain expressed with mouse IgG2a Fc tag (hIL-36R-Trap-mFc: mROR1 signal sequence (M1-A29)-human IL36R ecto domain (D20-Y337)-human IL1RacP ecto domain(S21-E359)-mouse IgG2aFc) in HBS-ET running buffer (ranging from 100 nM to 3.7 nM, 3-fold dilutions) were injected over the anti-IL-36R antibody captured surface for 4 minutes at a flow rate of 30 μL/minute and their dissociation in HBS-ET running buffer was monitored for 10 minutes. Kinetic association rate constant (kₐ) and dissociation rate constant (kd) were determined by fitting the real-time sensorgrams to a 1:1 binding model using Scrubber 2.0c curve fitting software. Binding dissociation equilibrium constants (KD) and dissociative half-lives (t_{1/2}) were calculated from the kinetic rate constants as: […]
(In SPR one partner is held on a chip, and binding of the other changes the refractive index at the surface.)

The target in experiment [2] is T2, full-length human IL-36R on cells (human, UniProt Q9HB29 20-575).
T2 sequence (looked up): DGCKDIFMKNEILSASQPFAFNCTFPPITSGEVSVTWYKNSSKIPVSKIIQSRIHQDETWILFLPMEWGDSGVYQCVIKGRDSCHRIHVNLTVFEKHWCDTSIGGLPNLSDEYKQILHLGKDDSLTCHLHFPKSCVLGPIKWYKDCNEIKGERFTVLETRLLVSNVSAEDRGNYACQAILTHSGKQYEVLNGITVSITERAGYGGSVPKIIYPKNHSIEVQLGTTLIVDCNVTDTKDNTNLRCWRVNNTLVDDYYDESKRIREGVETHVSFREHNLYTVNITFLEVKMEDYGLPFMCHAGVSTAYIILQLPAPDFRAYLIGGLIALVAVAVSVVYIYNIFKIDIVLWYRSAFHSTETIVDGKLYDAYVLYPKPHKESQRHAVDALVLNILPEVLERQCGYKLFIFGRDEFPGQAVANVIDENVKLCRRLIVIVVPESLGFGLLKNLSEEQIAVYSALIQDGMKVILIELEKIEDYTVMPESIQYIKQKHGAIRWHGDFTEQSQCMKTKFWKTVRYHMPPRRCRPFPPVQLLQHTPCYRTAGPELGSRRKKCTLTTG
Description: cell-based or functional assay.

The target of experiment [3] is T1, recombinant human IL-36R extracellular …. Description: SPR (Biacore 4000), mAb captured on anti-human Fc, 25°C. The procedure:
as §1

The term Kd denotes the free concentration of one partner at which half of the binding sites on the other are occupied at equilibrium, for simple one-to-one binding. As usually defined, the koff is the first-order rate constant of dissociation. In general, kon refers to the rate constant with which the complex forms. Usually t½ stands for how long it takes for the measured level to halve.

B1: H4H14709P (antibody, human IgG4 S228P, kappa, V domains shown)
VH: EVQLVESGGGLVQPGGSLRLSCAASGFTFSDYAMSWVRQAPGKGLEWVSGISGNGGDTYYGDFVKGRFTISRDNSKNTLYLQMNSLRGEDTAAYFCVIDLDYWGQGTLVTVSS
VL: DIQMTQSPSTLSASEGDRVTITCRASQSISSWLAWYQQKPGKAPRLLIYKASILGDGVPSRFSGSGSGTEFTLTISSLQPDDFATYYCHQYNSYLWTFGQGTKVEIKR
Turning to B1, in experiment [1], the “100 nM hIL-36R-MMH Bound (RU)” value worked out at 106 RU, the Kd is 4.25 nM, the off-rate constant (koff) is 0.000554 s⁻¹ and the kon was 131000 M⁻¹ s⁻¹. Besides, the “t½” value in experiment [1] worked out at 21 min. Besides, in experiment [2], the “IC50 [M], NFκB-luciferase, 10 pM hIL-36γ” value came out at 1.3e-10 M; the “IC50 [M], NFκB-luciferase, 20 pM hIL-36α” value came out at 1.4e-10 M; the “Max Inhibition (%), NFκB-luciferase, 10 pM hIL-36γ” value was 24%; the “Max Inhibition (%), NFκB-luciferase, 20 pM hIL-36α” value amounted to 22%. Further, in experiment [3], the “100 nM hIL-36R-MMH Bound (RU)” value is 64 RU, the Kd was 4.09 nM, the dissociation rate constant (koff) came out at 0.000296 s⁻¹ and the kon was 72300 M⁻¹ s⁻¹. The “t½” value in experiment [3] was 39 min.

B2: H4H14758P (antibody, human IgG4 S228P, kappa, V domains shown)
VH: EVQLVESGGGLVQPGRSLRLSCAASGFTFDDYAMHWVRQAPGKGLEWVSSVRWNGGIIGYADSVKGRFTISRDNAKNSLYLQMNSLRPEDTALYYCAKDIGDVLTGYYGEYGMDVWGQGTTVTVSS
VL: DIQMTQSPSSLSASVGDRVTIACRASQSITTYLNWYQQKPGKAPKLLIYAASSLQSGVPSRFSGSGSGTDFTLTISSLQPEDFATYYCQQSYISPYTFGQGTKLEIKR
Turning to B2, in experiment [1], the “100 nM hIL-36R-MMH Bound (RU)” value came to 111 RU, the Kd was found to be 15 nM, the koff worked out at 0.00237 s⁻¹ and the kon was determined as 158000 M⁻¹ s⁻¹. The “t½” value in experiment [1] is 5 min. Also, in experiment [2], the “IC50 [M], NFκB-luciferase, 10 pM hIL-36γ” value was found to be 1.6e-10 M; the “IC50 [M], NFκB-luciferase, 20 pM hIL-36α” value is 1.2e-10 M; the “Max Inhibition (%), NFκB-luciferase, 10 pM hIL-36γ” value was 57%; the “Max Inhibition (%), NFκB-luciferase, 20 pM hIL-36α” value stood at 100%. For the same molecule, in experiment [3], the “100 nM hIL-36R-MMH Bound (RU)” value stood at 87 RU, the Kd amounted to 7.63 nM, the koff worked out at 0.000923 s⁻¹ and the on-rate constant (kon) amounted to 121000 M⁻¹ s⁻¹. Also, the “t½” value in experiment [3] was found to be 13 min.

B3: H4H14734P2 (antibody, human IgG4 S228P, kappa, V domains shown)
VH: EVQLVESGGGLVKPGGSLRLSCAASGFIFSNAWMNWVRQAPGKGLAWVGRIKTETDGGTTDYAAPVKGRFTISRDDSKNTLYLQMNSVKTEDTAVYYCTGGYSYGDDSSSWNEGYYYYGMDVWGQGTTVTVSS
VL: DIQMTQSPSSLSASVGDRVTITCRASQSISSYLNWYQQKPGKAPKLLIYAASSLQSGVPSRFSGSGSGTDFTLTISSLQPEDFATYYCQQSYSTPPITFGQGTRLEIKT
Regarding B3, in experiment [1], the “100 nM hIL-36R-MMH Bound (RU)” value stood at 25 RU, the Kd was 13.9 nM, the koff was determined as 0.000749 s⁻¹ and the on-rate constant (kon) was determined as 53900 M⁻¹ s⁻¹. The “t½” value in experiment [1] is 15 min. In experiment [3], the “100 nM hIL-36R-MMH Bound (RU)” value is 22 RU, the equilibrium dissociation constant (Kd) was found to be 12.2 nM, the koff was 0.000404 s⁻¹ and the association rate constant (kon) came to 33200 M⁻¹ s⁻¹. The “t½” value in experiment [3] is 29 min.
